The DeepSol protein solubility set

Experiment: soluble on expression in E. coli; label from the status in PepcDB or PDB records
With “IFFMEAMSPQQETLGGQPGRSSSLTGVSRLAGGSCTKKKMKTLAERRRSAPSLILDKALQKRPTTRDSPSASVDTCTFLSSLVCSNRTLLIDGRAELKRGLQRQERHLFLFNDLFVVAKIKYNNNFKIKNKIKLTDMWTASCVDEVGEGNTNAMKSFVLGWPTVNFVATFSSPEQKDKWLSLLQRYINLEKEKDYPKSIPLKIFAKDIGNCAYSKTITVMNSDTANEVINMSLPMLGITGSERDYQLWVNSGKEEAPYPLIGHEYPYGIKMSHLRDSALLTPGSKDSTTPFNLQEPFLMEQLPREMQCQFILKPSRLAAAQQLSDSGHKTFKRRRSIINWAFWRGSSTHLDNLPSSPTSPMPGQLFGISLPNICENDNLPKPVLDMLFFLNQKGPLTKGIFRQSANVKSCRELKEKLNSGVEVHLDCESIFVIASVLKDFLRNIPGSIFSSDLYDHWVSVMDQGNDEEKINTVQRLLDQLPRANVVLLRYLFGVLHNIEQHSSSNQMTAFNLAVCVAPSILWPPASSSPELENEFTKKVSLLIQFLIENCLRIFGEEITSLFREVSVRCDTRENASDISCFQLNDSSYDSLENELNEDVDAPCSDLVKKLGQGSRSMDSVLTLSDYDLDQPEVEGLLTLSDFDLAHSKDEDVQMKRPLESKPVNILVYTKIPLRDHARAPSAMCTPSYLSTAAANAAKSLRRHRRCSEPSIDYLDSKLSYLREFYQKKLRKSSCDAILSQKDEDYLKQNQPLQEEGKTCFKQSLVTGTDVSKKNATTQNTKKKSLSGSEGNHVKLFPKSKPVAISVASYSPMSSQDHSKNQPFDVNTSGYSPPHTADALKGPRTHRRCSEPNIEDQNRKLTYLRGIYSKKQHKTSCEAGLLHGEEDYLKRHKSLQMEGQKLINQSLVMGIEVGKSSATNQNTEKVLPPRLNLCPRTSYSSLSSPGTSPSGSSVSSQDSAFSQISEHSVFTPTETSSPIDCTFQAQRKREDLSPDFSNASHVSGMPGPSSGQACSRPAYTKKDTMEWHSQMHSVTLHPSTWLRNGVASLKNWSLKKKAKAARPEEEKIASPKGPLEPPPHASGVPEANSLQEEQKDLPLRAAEGLSPVQSAQRCSSSPFQDSERHCSSPFSLVESRLKLCMKSHEEIEPGSQSSSGSLPWERASASSWTLEDATSPDSGPTVVCDIEDRYLTKDI” the “soluble on expression in E. coli” value was “soluble”.
With “IFSEINIDPTKRVLLYAPTWKTNSSDDDIFPINEQLLKHYNVIYKGHVESKNDLVPEGVIIPPNNIETQDLIIISDVVLTDYSSIIFDALTVDKKGCLYTPNHSQYVEERGVYQDVMDTLKPIWYTDAELLINDLITDSIPQLNNKYTNKNNQSFEYISKLISN” the “soluble on expression in E. coli” value was “not soluble”.
For “IGEFSYSLNGNLSYAHNRILSRTQADNTLPWQSVLGSSVGELWGLKALGLYQSEEEIANSPQVSWNTPRVGDIKYADINGDGKIDSNDRIKISRGIRPEMMFALMADANYKGFDLSVQFQGAALCDKMLQYSWQDLNGATDMTPMTRPWYANWDNAPLYLVENSWRPDHTNAEYPRLTVSSVSHSNNAQQSDFWKRNGAYLRLKNVTLGYTLPKAWTNKMGLSNIRVYANGTNLLTFTDFKYIDPESTNVATGYYPQQRTFSFGIDVRF”, the “soluble on expression in E. coli” value was “not soluble”.
For “IGQVNLQLRANFTYQTTDIIDKDEAANELWYKMDKGFQLNQSRGLIALGLFKDQDEIDRSPKQTSNRPILPGDIKYKDVNGDGVINDDDIVPLGYREVPGLQYGVGLSANWRNWNLSVLFQGTGKCDFFIGGNGPHAFRSERYGNILQAMVDGNRWIPKEISGTTATENPNADWPLLTYGNNDNNNRKSTFWLYERKYLRLRNVEVSYDFPQTWTRKFFVSNLRLGFVGQNLLTWAPFKMWDPEGTREDGSNYPINKTFSCYLQISF”, the “soluble on expression in E. coli” value was “not soluble”.
With “ILRTKAQFVAMNEASLMQINHEWLQGTQSKQVTSQGETWQIDKRAESTISPNVQRIEIQVSLFDTQQNKVEAGITNLVFFNYPQKENAS” the “soluble on expression in E. coli” value was “not soluble”.
For “INKINLNKPIIENKNNVDVSIKRYNNFVDIARLSIQKHFEHLSNDQKDSHVNNMEYMQKFVQGLQENRNISLSKYQENKAVMDLKYHLQKVYANYLSQEEN”, the “soluble on expression in E. coli” value was “soluble”.
With “IPEEGGDELGAMARTLSLFRESAIEKKKLEDEAERQRRTIAAALEVISDGFVLYDSEDRILVANSKYCEIFPSHKPNTLRGRSFREIVEQNLEMGQVDLEGKSPQEWVDERVRLHRDPAGLVDEKRFGDKWVRISKRKIPD” the “soluble on expression in E. coli” value was “not soluble”.
In the case of “IRQTYEQSCGASSLATLLNILDDQKKFDELELLKIMSGQELYTDMVSFADLNDAVKKLGFQSNSYQINRENLDKLVNIPMLVKIEDDPRFPHFVIIINHKGNYLQVLDPSHGEYISSKSQFFSIWDRYNKGGYALIVAP”, the “soluble on expression in E. coli” value is reported as “not soluble”.
With “ISEFGSCPPGQFRCSEPPGAHGECYPQDWLCDGHPDCDDGRDEWGCG” the “soluble on expression in E. coli” value was “soluble”.
For “ISRLLKNNLMDDVFNTENESFAQETRLIENEYSINLPTRFYYKKKWNDGWINVVNPFRASMVLGTPGSGKSYAIVNNYIKQQIEKGFAVYIYDYKFPDLSEIAYNHLISYLDGYKVKPKFYMINFDDPRKSHRCNPINPAFMTDISDAYEASYTIMLNLNRSWITKQGDFFVESPIILLASIIWFLKIYQGGKYCTFPHAIEFLNKKYADTFTILTSYPELENYLSPFMDAWESNAQDQLQGQLASAKIPLSRMISPALYWVMTGDDFSLDINNPEEPKILVVGNNPDRQNIYSCALGLYNSRIVKLINKKHQLKSSVIIDELPTIYFRGLDNLIATARSNKVAVCLGFQDFSQLRRDYGDKESKVIENTVGNIFSGQVVSETAKTLSDRFGKVLQKRQSMTINRNDKSTSISTQMDSLIPPSKISNLTQGMFVGAVSDNFDERIEQKIFHAEIMVDNEKVKRETASYKKLPQIIDFRDEDGNDRMQEEIQANYNRVKQEVQQIITDEIERIKNDPNLQNLLKHE”, the “soluble on expression in E. coli” value was “not soluble”.
In the case of “ITEDEIRTLMEQGADEGVFDRAEQELVENIFRLDNRKASAVMTPRKDVVILDLEDGPERNRELLLGHPFSHFPVCRGDTDQVIGMLNAKTLLDRLLRGEALDFAAELSPPLYVPSTCSLMQLLEQFKQARSHSALVVDEYGELEGLVSINNVMEAIVGDLPAIDGEEDEIV”, the “soluble on expression in E. coli” value is reported as “not soluble”.
With “ITEEEAKLFTEQLGDIIQFAEQLNELDTEGVEPTSHVLDMKNVLREDKPEKGLPVEDVLKNAPDHEDGQIR” the “soluble on expression in E. coli” value was “not soluble”.
For “IVMQFPREEYFAPGHRGCAGCGAAIVARLLLKVAGKDTIITNATGCLEVMTTPYPETSWRVPWIHTAFENAAATASGIEAAVKALKRKRGKFADKKINVIAIGGDGGTADIGFQALSGAMERGHDILYIMYDNEAYMNTGIQRSSSTPFMAATTTSPAGSKIRGEDRPKKDMTMIMAAHGIPYVATACISYPEDFMRKVKKALSIEGPKFIQVLQPCTTGWGYPPEKTIEIGRLAVETGIFPLYEIENGEFRITYKPAKRKPVREYLKMQKRYRHLTDEDIERIQKYIDEKCKLLGL”, the “soluble on expression in E. coli” value was “not soluble”.
In the case of “IVVLHGLYMHGLVMKPLASRLRRKGHSVQVVSYNSVRINEALLFKRIRNCLSETEKNVIVGHSLGGILAVHFVNSHNDKHTPIDSIVTIGSPLQGASIAKEIQNRKLGFILGNSKEQGLVDVNQLTVDCPIGSIAGTLPIGIRSSIIRDRVPSDGTVTVEETVLPELKDHLCLNYSHTSLIYAKQTVEQIDYFIHHHEFKRV”, the “soluble on expression in E. coli” value is reported as “not soluble”.
In the case of “KDFCASIHRNDSLSLTHELEPFIDSMKNKTGVYVLEDGGGSLITRAWLSEYAEETIDIQYFIFSADNVGLIACDYLVRAADRGVKVRILIDDILVEAGVHEILTLDSHENIEIKIYNPGINLGKNIFNKIGKFTTDFRGANQRMHNKTFIVDHKVVITGGRNIADEYFDYDHEYNFRDRDVLLIGKTATDVQQSFESFWVDALSIPITGLVKEDDVTYTDTSRFERLHQYACNPDNFWPQVRKRISN”, the “soluble on expression in E. coli” value is reported as “not soluble”.
For “KFFNLFLKKGNKINPLIGNAGVSAVPDSARISQVIGLEYDPTNYLLMHAM”, the “soluble on expression in E. coli” value was “not soluble”.
For “KGPNLTEISKKITESNAVVLAVKEVETLLTSIDELAKAIGKKIKSDVSLDNEADHNGSLMSGAYLISTLITKKISAIKDSGELKAEIEKAKKCSEEFTAKLKGEHTDLGKEGVTDDNAKKAILKTNNDKTKGADELEKLFESVKNLSKAAKEMLTNSVKELTSP”, the “soluble on expression in E. coli” value was “soluble”.
In the case of “KGSTFIKAQDKYEVNILYLISHALVETGNGQSDLSKGIKEGDHHYYNFFGIGAFDEDAVKTGKSFAKQKKWTTPEKAIMGGAWFVRYHYFKNNQLSLYQMRWNPQNPGQHQYASDIQWANNIADLMEKYYDKYGIKKDHIRKKYYK”, the “soluble on expression in E. coli” value is reported as “not soluble”.
With “KIKRMECFDISHTMGNQTVASCVVFNKEGPLKSDYRRFNIEGITGGDDYAAMEQVLQKRYERDLEEDKIPDIIFIDGGKGQLNRALNVFQHLQVKWDKNRPHLIGVAKGVDRRAGQEVLIISKQDREIHLPDDSLALHLIQHIRDESHNHAISGHRKKRQKAF” the “soluble on expression in E. coli” value was “not soluble”.
For “KKEQEQMLKEERKRELEEKVKAVEDRAKRRKLREERAWLLAQGKELPPELSHLDPNSPMREEKKTKDLFELDDDFTAMYKVLDVVKAHKDSWPFLEPVDESYAPNYYQIIKAPMDISSMEKKLNGGLYCTKEEFVNDMKTMFRNCRKYNGESSEYTKMSDNLERCFHRAMMKHFPGEDGDTDEEFWIREDEKREKRRSRAGRSGGSHVWTRSRDPEGSSRKQQPMENGGKSLPPTRRAPSSGDDQSSSSTQPPREVGTSNGRGFSHPLHCGGTPSQAPFLNQMRPAVPGTFGPLRGSDPATLYGSSGVLEPHPGEPVQQRQPFTMQPPVGINSLRGPRLGTPEEKQMCGGLTHLSNMGPHPGSLQLGQISGPSQDGSMYAPAQFQPGFIPPRHGGAPARPPDFPESSEIPPSHMYRSYKYLNRVHSAVWNGNHGATNQGPLGPDEKPHLGPGPSHQPRTLGHVMDSRVMRPPVPPNQWTEQSGFLPHGVPSSGYMRPPCKSAGHRLQPPPVPAPSSLFGAPAQALRGVQGGDSMMDSPEMIAMQQLSSRVCPPGVPYHPHQPAHPRLPGPFPQVAHPMSVTVSAPKPALGNPGRAPENSEAQEPENDQAEPLPGLEEKPPGVGTSEGVYLTQLPHPTPPLQTDCTRQSSPQERETVGPELKSSSSESADNCKAMKGKNPWPSDSSYPGPAAQGCVRDLSTVADRGALSENGVIGEASPCGSEGKGLGSSGSEKLLCPRGRTLQETMPCTGQNAATPPSTDPGLTGGTVSQFPPLYMPGLEYPNSAAHYHISPGLQGVGPVMGGKSPASHPQHFPPRGFQSNHPHSGGFPRYRPPQGMRYSYHPPPQPSYHHYQRTPYYACPQSFSDWQRPLHPQGSPSGPPASQPPPPRSLFSDKNAMASLQGCETLNAALTSPTRMDAVAAKVPNDGQNPGPEEEKLDESMERPESPKEFLDLDNHNAATKRQSSLSASEYLYGTPPPLSSGMGFGSSAFPPHSVMLQTGPPYTPQRPASHFQPRAYSSPVAALPPHHPGATQPNGLSQEGPIYRCQEEGLGHFQAVMMEQIGTRSGIRGPFQEMYRPSGMQMHPVQSQASFPKTPTAATSQEEVPPHKPPTLPLDQS”, the “soluble on expression in E. coli” value was “soluble”.
In the case of “KKLCGYLSKFGGKGPIRGWKSRWFFYDERKCQLYYSRTAQDANPLDSIDLSSAVFDCKADAEEGIFEIKTPSRVITLKAATKQAMLYWLQQLQMKRWEFHNSPPAP”, the “soluble on expression in E. coli” value is reported as “soluble”.
For “KKTEWSREEEEKLLHLAKLMPTQWRTIAPIIGRTAAQCLEHYEFLLDKAAQRD”, the “soluble on expression in E. coli” value was “soluble”.
In the case of “KLEYRISYDDEKEIKAIVFIIGGYGANANIYFLDSYRNYIAKNFDVVAVHVFYHCFCQRRSDVEKYSAYKYFQEEDIENIKNLLNQFHFSYGEINNDNALFLANSLVKHVENLKMQNKLDHNFKLNFTSTFIPPNGDYQNYGIMAAIDHINALKDLVKRFPKFADLPK”, the “soluble on expression in E. coli” value is reported as “not soluble”.
With “KMFSYEGQVIIVTGDEKSTEFCNTATANYDSFRAGPVFDGTGLNPFCFVAHDFTADYLPNGQAKMFSSNVSYAQGDRIFDDVSTWDDYSLRVNHPLRIAGDRVYLQGHGYAPTFSIQWPNGEKRTQTVQWQPTDPTFFLSDGVVRFDPPAGMNDSVYDRRQHQLAIQGLFAPTASWEGENHELLTSRFPAMTDPAVAIDVYRGDNGLDSGKGQNLFKLDTSLVHSGQLQRLERVNLTKGESVTLDDGTVVTFEGAEEFANYQISHDPTQ” the “soluble on expression in E. coli” value was “not soluble”.
